Measured values reported in paper PMC4265154, “A reversible Renilla luciferase protein complementation assay for rapid identification of protein–protein interactions reveals the existence of an interaction network involved in xyloglucan biosynthesis in the plant Golgi apparatus” (Journal of Experimental Botany, 2014).

B1: GALACTURONOSYLTRANSFERASE7 (GAUT7) fused to hRluc fragment [F1] or [F2] (natural protein, Arabidopsis thaliana, UniProt Q9ZVI7 1-619, looked up)
chain: MKGGGGGGGGGGGGKRRWKVLVIGVLVLVILSMLVPLAFLLGLHNGFHSPGFVTVQPASSFESFTRINATKHTQRDVSERVDEVLQKINPVLPKKSDINVGSRDVNATSGTDSKKRGLPVSPTVVANPSPANKTKSEASYTGVQRKIVSGDETWRTCEVKYGSYCLWREENKEPMKDAKVKQMKDQLFVARAYYPSIAKMPSQSKLTRDMKQNIQEFERILSESSQDADLPPQVDKKLQKMEAVIAKAKSFPVDCNNVDKKLRQILDLTEDEASFHMKQSVFLYQLAVQTMPKSLHCLSMRLTVEHFKSDSLEDPISEKFSDPSLLHFVIISDNILASSVVINSTVVHARDSKNFVFHVLTDEQNYFAMKQWFIRNPCKQSTVQVLNIEKLELDDSDMKLSLSAEFRVSFPSGDLLASQQNRTHYLSLFSQSHYLLPKLFDKLEKVVILDDDVVVQRDLSPLWDLDMEGKVNGAVKSCTVRLGQLRSLKRGNFDTNACLWMSGLNVVDLARWRALGVSETYQKYYKEMSSGDESSEAIALQASLLTFQDQVYALDDKWALSGLGYDYYINAQAIKNAAILHYNGNMKPWLELGIPNYKNYWRRHLSREDRFLSDCNVNP
notes: Made in two forms, one with [F1]-HA and one with [F2]-FLAG; a chain carries one of the two; also called GAUT7-[F1]; GAUT7-[F2]; source: N. benthamiana leaves, transient expression (A. tumefaciens GV3101, with p19), in crude leaf macerate; not shown: hRluc[F1]; (Renilla luciferase residues 1-110) with HA, C-terminal, kept; hRluc[F2]; (Renilla luciferase residues 111-310) with FLAG, C-terminal, kept
B4: GALACTURONOSYLTRANSFERASE1 (GAUT1) fused to hRluc fragment [F1] or [F2] (natural protein, Arabidopsis thaliana, UniProt Q9LE59 1-673, looked up)
chain: MALKRGLSGVNRIRGSGGGSRSVLVLLIFFCVFAPLCFFVGRGVYIDSSNDYSIVSVKQNLDWRERLAMQSVRSLFSKEILDVIATSTADLGPLSLDSFKKNNLSASWRGTGVDPSFRHSENPATPDVKSNNLNEKRDSISKDSIHQKVETPTKIHRRQLREKRREMRANELVQHNDDTILKLENAAIERSKSVDSAVLGKYSIWRRENENDNSDSNIRLMRDQVIMARVYSGIAKLKNKNDLLQELQARLKDSQRVLGEATSDADLPRSAHEKLRAMGQVLAKAKMQLYDCKLVTGKLRAMLQTADEQVRSLKKQSTFLAQLAAKTIPNPIHCLSMRLTIDYYLLSPEKRKFPRSENLENPNLYHYALFSDNVLAASVVVNSTIMNAKDPSKHVFHLVTDKLNFGAMNMWFLLNPPGKATIHVENVDEFKWLNSSYCPVLRQLESAAMREYYFKADHPTSGSSNLKYRNPKYLSMLNHLRFYLPEVYPKLNKILFLDDDIIVQKDLTPLWEVNLNGKVNGAVETCGESFHRFDKYLNFSNPHIARNFNPNACGWAYGMNMFDLKEWKKRDITGIYHKWQNMNENRTLWKLGTLPPGLITFYGLTHPLNKAWHVLGLGYNPSIDKKDIENAAVVHYNGNMKPWLELAMSKYRPYWTKYIKFDHPYLRRCNLHE
notes: Made in two forms, one with [F1]-HA and one with [F2]-FLAG; a chain carries one of the two; also called GAUT1-[F1]; GAUT1-[F2]; source: N. benthamiana leaves, transient expression (A. tumefaciens GV3101, with p19), in crude leaf macerate; not shown: hRluc[F1]; (Renilla luciferase residues 1-110) with HA, C-terminal, kept; hRluc[F2]; (Renilla luciferase residues 111-310) with FLAG, C-terminal, kept

Columns and labels:
Test in all cases: split reporter (BiFC, NanoBiT); Rluc-PCA: proteins with C-terminal hRluc[F1]-HA and hRluc[F2]-FLAG co-expressed with p19 in N. benthamiana leaves for 72 h (Agrobacterium OD600 0.2 each, p19 0.05); pooled leaf discs macerated in 0.5 M NaCl, 0.1 M potassium phosphate pH 7.4, 1 mM EDTA, 0.02% BSA, protease inhibitors; 10 uM coelenterazine-h, luminescence 30 s; compared with p19 alone
[1] = target: FUCO…1 (FUT1) fused to hRluc fragment [F1] or [F2] (Arabidopsis thaliana) (UniProt Q9SWH5)
[2] = target: B4; settings: partners not purified
[3] = target: the molecule itself
[4] = target: B1; settings: partners not purified

Chain of FUCO…1 (FUT1) fused to hRluc fragment [F1] or [F2] (Arabidopsis thaliana) (Q9SWH5 whole entry, the tested form may be a part): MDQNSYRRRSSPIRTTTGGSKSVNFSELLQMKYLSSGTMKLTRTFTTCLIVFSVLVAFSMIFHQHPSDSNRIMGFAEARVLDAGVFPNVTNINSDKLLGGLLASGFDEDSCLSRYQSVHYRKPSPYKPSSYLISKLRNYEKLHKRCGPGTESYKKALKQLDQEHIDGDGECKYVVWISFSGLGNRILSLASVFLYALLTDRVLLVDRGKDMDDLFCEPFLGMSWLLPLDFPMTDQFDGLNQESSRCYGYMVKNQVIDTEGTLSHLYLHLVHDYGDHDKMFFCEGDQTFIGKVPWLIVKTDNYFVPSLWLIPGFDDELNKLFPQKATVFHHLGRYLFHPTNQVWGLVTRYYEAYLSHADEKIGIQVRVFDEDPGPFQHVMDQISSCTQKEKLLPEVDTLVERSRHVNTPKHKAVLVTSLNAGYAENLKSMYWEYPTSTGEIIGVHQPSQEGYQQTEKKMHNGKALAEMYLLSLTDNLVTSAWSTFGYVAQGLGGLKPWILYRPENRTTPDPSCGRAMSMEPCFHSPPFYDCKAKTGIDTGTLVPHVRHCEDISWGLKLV

Molecule: XXT5 fused to hRluc fragment [F1] or [F2] (from UniProt Q9CA75 1-457) (natural protein)
- Log10(RLU) [1]: 3.76 Log10(RLU)

Molecule: B1
- Log10(RLU) [2]: 4.71 Log10(RLU)

B2: ARABINAN DEFICIENT1 (ARAD1) fused to hRluc fragment [F1] or [F2] (natural protein, Arabidopsis thaliana, UniProt Q6DBG8 1-447, looked up)
chain: MARKSSLLKRAAIAVVSVIAIYVILNASVSRSLPSSSDLPRQLIREDDDDEGRAPIQPRVRVYMYNLPKRFTYGLIEQHSIARGGIKKPVGDVTTLKYPGHQHMHEWYLFSDLNQPEVDRSGSPIVRVSDPADADLFYVPVFSSLSLIVNAGRPVEAGSGYSDEKMQEGLVEWLEGQEWWRRNAGRDHVIPAGDPNALYRILDRVKNAVLLVSDFGRLRPDQGSFVKDVVIPYSHRVNLFNGEIGVEDRNTLLFFMGNRYRKDGGKVRDLLFQVLEKEDDVTIKHGTQSRENRRAATKGMHTSKFCLNPAGDTPSACRLFDSIVSLCVPLIVSDSIELPFEDVIDYRKFSIFVEANAALQPGFLVQMLRKIKTKKILEYQREMKSVRRYFDYDNPNGAVKEIWRQVSHKLPLIKLMSNRDRRLVLRNLTEPNCSCLCTNQTGLITSI
notes: Made in two forms, one with [F1]-HA and one with [F2]-FLAG; a chain carries one of the two; also called ARAD1-[F1]; ARAD1-[F2]; source: N. benthamiana leaves, transient expression (A. tumefaciens GV3101, with p19), in crude leaf macerate; not shown: hRluc[F1]; (Renilla luciferase residues 1-110) with HA, C-terminal, kept; hRluc[F2]; (Renilla luciferase residues 111-310) with FLAG, C-terminal, kept
- Log10(RLU) [3]: 4.75 Log10(RLU)

B3: MURUS3/KATAMARI1 (MUR3) fused to hRluc fragment [F1] or [F2] (natural protein, Arabidopsis thaliana, UniProt Q7XJ98 1-619, looked up)
chain: MFPRVSMRRRSAEVSPTEPMEKGNGKNQTNRICLLVALSLFFWALLLYFHFVVLGTSNIDKQLQLQPSYAQSQPSSVSLRVDKFPIEPHAAPSKPPPKEPLVTIDKPILPPAPVANSSSTFKPPRIVESGKKQEFSFIRALKTVDNKSDPCGGKYIYVHNLPSKFNEDMLRDCKKLSLWTNMCKFTTNAGLGPPLENVEGVFSDEGWYATNQFAVDVIFSNRMKQYKCLTNDSSLAAAIFVPFYAGFDIARYLWGYNISRRDAASLELVDWLMKRPEWDIMRGKDHFLVAGRITWDFRRLSEEETDWGNKLLFLPAAKNMSMLVVESSPWNANDFGIPYPTYFHPAKDSEVFEWQDRMRNLERKWLFSFAGAPRPDNPKSIRGQIIDQCRNSNVGKLLECDFGESKCHAPSSIMQMFQSSLFCLQPQGDSYTRRSAFDSMLAGCIPVFFHPGSAYTQYTWHLPKNYTTYSVFIPEDDVRKRNISIEERLLQIPAKQVKIMRENVINLIPRLIYADPRSELETQKDAFDVSVQAVIDKVTRLRKNMIEGRTEYDYFVEENSWKYALLEEGQREAGGHVWDPFFSKPKPGEDGSSDGNGGTTISADAAKNSWKSEQRDKTQ
notes: Made in two forms, one with [F1]-HA and one with [F2]-FLAG; a chain carries one of the two; also called MUR3-[F1]; MUR3-[F2]; source: N. benthamiana leaves, transient expression (A. tumefaciens GV3101, with p19), in crude leaf macerate; not shown: hRluc[F1]; (Renilla luciferase residues 1-110) with HA, C-terminal, kept; hRluc[F2]; (Renilla luciferase residues 111-310) with FLAG, C-terminal, kept
- Log10(RLU) [3]: 4.75 Log10(RLU)

Molecule: B4
- Log10(RLU) [4]: 4.71 Log10(RLU)
